Data on one molecule can be found in patent US20250295111A1, “ANTIMICROBIAL PEPTIDES OF ACTI[…] METHODS OF USE THEREOF” (THE REGENTS OF THE UNIVERSITY OF CALIFORNIA, priority 2023, published 2025).

The assay has as its system Saccharomyces cerevisiae. Kind of assay: Antimicrobial peptide inhibition assay (filter paper disk on YPD agar plate, zone of inhibition). To be noted: protein extract from recombinant E. coli BL21 (DE3) overexpressing the AMP, 6-mm filter paper disk on YPD agar plate, 30° C. for 24 h. In kind it is cell-based. The procedure: A 102 amino acid AMP candidate from Streptosporangium becharense DSM 46887 (GenBank ID: MBB5817359.1) with a predicted molecular weight of 11.2 kDa, pI of 8.67 and charge of 3.5, was cloned in E. coli for functional validation. The sequence was codon optimized and sent to Twist Biosciences (San Francisco, CA) for synthesis and cloned into a pET-21 (+) expression vector. The plasmid DNA (pET-21 (+)_AMP_S.be) was then transferred into E. coli BL21 (DE3) strain with […] carbenicillin (MilliporeSigma, Burlington, MA) selection. To overexpress the short peptide, 100 mL of E. coli BL21 (DE3) harboring the recombinant plasmid was cultured in Luria-Bertani broth containing […] of carbenicillin at 37° C. until the mid-exponential phase. The overexpression was induced by addition of 0.1 mM isopropyl-b-D-thiogalactopyranoside (MilliporeSigma, Burlington, MA) at 25° C. and 120 rpm for 16 h. […]
Yeast Saccharomyces cerevisiae was used for the antimicrobial activity assessment with proteins extracted from the recombinant E. coli. […] After incubation at 30° C. for 24 h, the antimicrobial activity of the short peptide was determined by appearance of the zone of inhibition. To confirm the overexpression of the short peptide, the protein extract was analyzed using SDS-PAGE gel (12% Mini-PROTEAN_TGXTM Precast Gel, Bio-Rad Laboratories, Hercules, CA). […]

B1: AMP candidate from Streptosporangium becharense DSM 46887: 102 amino acid AMP candidate with signal peptide from Streptosporangium becharense DSM 46887, overexpressed in E. coli (protein)
chain: MKRIFLVPALTAGIFALTTGAAYASQYIAYEGPGFTGRSVLIDACGPSNIPYHGSYKWYGDGQSGRMYNQPNAHGVMHFRLPSNNNAEQRTPVGWQSIFIEC
modifications: Streptosporangium becharense
notes: 102 amino acid AMP candidate with signal peptide from Streptosporangium becharense DSM 46887, overexpressed in E. coli
As for B1, the “antimicrobial activity determined by appearance of the zone of inhibition” value was “Inhibition of Saccharomyces cerevisiae is demonstrated”. In addition, the “antimicrobial activity determined by appearance of the zone of inhibition” value (listed as AMP candidate of Streptosporangium becharense DSM 46887) is “Inhibition of Saccharomyces cerevisiae”.
